Experiment [1] concerns the target T1, Human BTC (human, UniProt P35070 32-111).
T1 construct: Soluble human BTC of the Biacore, ELISA, MSD and cell assays; also called human betacellulin; soluble human BTC
T1 sequence: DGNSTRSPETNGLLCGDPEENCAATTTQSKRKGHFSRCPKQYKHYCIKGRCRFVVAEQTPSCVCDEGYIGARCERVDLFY
Put plainly: SPR (Biacore/ProteOn). On the technique in general: Surface plasmon resonance follows binding to a sensor surface in real time, without labels.

Experiment [2] concerns the target T2, Mouse BTC (mouse, UniProt Q05928 32-111, limits assumed).
T2 sequence (looked up): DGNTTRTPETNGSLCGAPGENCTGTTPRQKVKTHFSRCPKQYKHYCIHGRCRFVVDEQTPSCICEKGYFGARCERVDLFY
The experiment in a line: SPR (Biacore/ProteOn).

Experiment [3] addresses T3, Cyno BTC (cynomolgus, UniProt A0A2K5X5E5 32-111).
T3 construct: also called cynomolgus BTC
T3 sequence: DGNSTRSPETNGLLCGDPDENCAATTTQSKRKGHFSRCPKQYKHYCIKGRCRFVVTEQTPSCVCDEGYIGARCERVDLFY
The experiment in a line: SPR (Biacore/ProteOn).

Experiment [4] deals with T4, Rat BTC (rat, UniProt Q9JJM4 32-111).
T4 sequence: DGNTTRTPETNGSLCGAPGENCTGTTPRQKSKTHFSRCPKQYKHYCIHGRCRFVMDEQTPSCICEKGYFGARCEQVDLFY
The experiment in a line: SPR (Biacore/ProteOn).

Experiment [5] concerns the target T5, Rabbit BTC (rabbit, UniProt G1SJ89 32-111).
T5 sequence: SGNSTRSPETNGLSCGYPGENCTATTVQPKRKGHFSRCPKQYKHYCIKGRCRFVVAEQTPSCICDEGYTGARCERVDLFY
Put plainly: SPR (Biacore/ProteOn).

For experiment [6], the target named is T1, Human BTC. The experiment in a line: cell-based or functional assay.
In experiment [7] the target is T6, membrane-bound human BTC on 293F-hBTC cells (human, UniProt P35070 32-111).
T6 sequence: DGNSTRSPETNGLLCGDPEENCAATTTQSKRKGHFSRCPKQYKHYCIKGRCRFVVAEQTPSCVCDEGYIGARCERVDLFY
Put plainly: cell-based or functional assay.

Experiment [8] addresses T1, Human BTC. The experiment in a line: MSD-based inhibition of BTC binding to ErbB1.
Experiment [9] deals with T1, Human BTC. The experiment in a line: MSD-based inhibition of BTC binding to ErbB4.
The target of experiment [10] is T6, membrane-bound human BTC on 293F-hBTC …. Put plainly: flow cytometry, 293F cells with BTC against 293F.
Experiment [11] deals with T1, Human BTC. The experiment in a line: SPR Biacore T200, anti-Fab capture, antigen as analyte.
Experiment [12] concerns the target T7, Human VEGF165 (human, UniProt P15692 27-191).
T7 construct: mature; biotinylated in the VEGFR2 ELISAs; also called human VEGF-A; VEGF-A
The experiment in a line: competition ELISA: antibody pre-incubated with VEGF-biotin, added to coated VEGFR2. Here is the method: The plates were then washed 3 times using 1λTBST. The plates were blocked in 2% BSA diluent (0.1% Tween 20/0.1% TirtonX100) overnight. After blocking, the plates were washed 3 times using TB ST and then the sample mixture was added at 20 μl/well. The sample mixture consisted a final fixed concentration of VEGF-biotin (in-house) at 400 pM and a 15 point 1:2 serial dilution of the antibody starting at 20 nM. The sample mixture was pre-incubated for 1 hour prior to adding to the plate and then incubated for another hour at room temperature on the plate. Afterwards, the plate was washed 3 times using TBST and 20 μl/well of Streptavidin-HRP diluted at 1:5000 was added for an incubation time of 1 hour. The plates were washed 3 times in TBST and then 20 μl/well of TMB substrate was added. TMB is a chromogen that yields a blue color when oxidized. TMB was incubated for 10 minutes until the signal saturated in the no antibody samples, and then 10 μl/well of 2N sulfuric acid was added which then changes the blue color to yellow and this now has a maximum absorbance at 450 nm.

Experiment [13] has as its target T1, Human BTC. The experiment in a line: inhibition of BTC binding to ErbB1; y axis MSD units, x axis Fab (pM); blocked partner ErbB1.
Experiment [14] addresses T6, membrane-bound human BTC on 293F-hBTC …. The experiment in a line: flow cytometry on 293F cells with membrane-bound human BTC, anti-human Fab detection; y axis Percent Positive Binding, x axis Antibody concentration (nM). Here is the method:
After washing the cells, the cells were dissociated using Versene at 37° C. The cells were washed with FACS buffer and plated at 100 μl in a 96 well plate using cells at 1×10⁶ cells/ml. Then 100 μl of a serial dilution of antibodies starting at 50 nM was used. The cells were incubated, washed and then treated with the secondary anti-human Fab-FITC antibody. The antibodies only bound to the cells expressing BTC. After which the cells were washed and analyzed on the Attune Flow Cytometry. All data analysis was carried out using Flow Jo software.
In FIG. 6A, Flow cytometry was used to assess the binding of NVS11 to membrane-bound BTC using an anti-human Fab antibody for detection.
Background: In flow cytometry, cells or beads pass a laser one at a time.

Experimental findings from patent publication US20220025032A1 (Novartis, published 2022) are described below.

Where only a bound is given, the exact number is not on record here.

T7 sequence (P15692 other isoform, or with tags, fused parts or gaps): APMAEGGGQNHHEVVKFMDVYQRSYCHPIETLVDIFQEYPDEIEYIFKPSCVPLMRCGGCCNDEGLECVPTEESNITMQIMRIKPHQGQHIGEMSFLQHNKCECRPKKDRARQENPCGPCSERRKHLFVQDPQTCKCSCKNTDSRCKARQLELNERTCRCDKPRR

B1: NVS1 (Fab, V domains shown)
VH: QVQLVQSGAEVKKPGSSVKVSCKASGGTFSSYAISWVRQAPGQGLEWMGGIVPWMGEAVYAQKFQGRVTITADESTSTAYMELSSLRSEDTAVYYCARSSSTYGIHAFDYWGQGTLVTVSS
VL: DIQMTQSPSSLSASVGDRVTITCRASQSISNFLNWYQQKPGKAPKLLIYAASNLQSGVPSRFSGSGSGTDFTLTISSLQPEDFATYYCQQYDDFPMTFGQGTKVEIKR
notes: also called Fab NVS1; NVS1 Fab
As a reminder, the Kd is a measure of binding affinity in units of concentration. High values mean weaker binding, low ones tighter binding. The term inhibition denotes how much of the control response was suppressed. High values mean strong suppression, low ones little suppression. What is called IC50 is the concentration at which inhibition is half-maximal. A lower IC50 goes with greater potency in that assay. The term EC50 denotes the concentration needed to bring the measured effect to its halfway point. A lower EC50 goes with a more potent agent. For B1, the Kd amounted to 6 pM in [1]; 4 pM in experiment [2]; 8 pM in [3]; 7 pM in [4]; 4 pM in experiment [5]; 1.7 pM in [11]. Besides, the “A431 pERK (IC50 in nM)” value in experiment [6] was 0.25 nM. In addition, the “ADR/Res pErbB3 (IC50 in nM)” value in experiment [6] was 5.7 nM. The same molecule had an inhibition in experiment [6] of 99.7%. Further, the “Neutralization of juxtacrine signaling” value in experiment [7] is 89%. Further, the “MSD-based binding inhibition BTC/ErbB1” value in [8] was > 90%. Besides, in experiment [9], the “MSD-based binding inhibition BTC/ErbB4” value is > 90%. For the same molecule, the “Binding to membrane-anchored BTC (median, X above 293F)” value in experiment [10] is > 10 X above 293F. In experiment [12], the binding result is recorded as “no binding (tested: 20000 pM)”. Moreover, in [13], the half-inhibitory concentration (IC50) stood at 301 pM. Further, in experiment [14], the half-maximal effective concentration (EC50) worked out at 133 pM.
